Molecular target: p35 (UniProt Q15078)
Experiment: co-IP

Sequence of UniProt Q15078 (Q15078 whole entry): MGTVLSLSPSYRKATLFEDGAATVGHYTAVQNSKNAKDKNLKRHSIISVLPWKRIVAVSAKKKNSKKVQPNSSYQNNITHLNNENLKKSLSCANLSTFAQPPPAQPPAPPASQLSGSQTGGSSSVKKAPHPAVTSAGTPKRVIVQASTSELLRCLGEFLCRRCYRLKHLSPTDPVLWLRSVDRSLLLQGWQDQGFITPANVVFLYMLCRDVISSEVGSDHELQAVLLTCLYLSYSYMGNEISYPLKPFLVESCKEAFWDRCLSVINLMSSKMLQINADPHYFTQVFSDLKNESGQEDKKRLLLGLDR

With “HA-CDK5-DN (D145N) (from UniProt Q00535 1-292) (enzyme)” the cdk5 recovered by anti-p35 IP with nestin co-expressed, normalised to no nestin was 1.12.

Reference: doi:10.1101/695155
